From the nanobody polyreactivity screen of Harvey et al. (2022)

test: yeast display, Sf9 membrane polyspecificity reagent, FACS + sequencing; frameworks hold sequencing errors
How it was run: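 Galactose-induced (36–48 hours) yeast carrying a synthetic nanobody display library were exposed to 10% biotinylated, detergent-solubilized Sf9 membrane reagent at 4 °C for 1 hour. FACS followed streptavidin microbead enrichment, using low and high (top ~1%) gates for expression (anti-HA) and reagent binding (streptavidin). Colony PCR, MiSeq 2 × 250 sequencing and CDR-length filtering followed. Labels for polyreactivity reflect the gate of origin.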

Sequence	polyreactivity (PSR sort gate)
QGQLVESWGGLVQAGGSLRLSCAASGRIFYGYVMGWYREAPGKERELVAAINHSGTSTYYADSVKGRFTISRDIAKNTVYLQMNIMKPEDTAVYYCAADQVGWTYDYWGQGTQVTVSS	low polyreactivity
QGQLVESWGGLVQAGGSLRLSCAASGSTFVFNAMGWYRQAPGKERELVAAISIDGSTNYADSVKGRFTISRDNAKNTVYLQMNSLEPEDTAVYYCNAKRYGFFYWQGDYWGQGTQVTVSS	low polyreactivity
QGQLVETGGGLVQAGGSLRLSCGASGSTFLWNTIGWYRQGPRKERELVAEIRTSGGGTYYADSVKGRFTISRDNAKNTVYLQMNSLKPEDTEVYYCYADPKWEMGSWGQGTQVTVSS	low polyreactivity
QGQRVESGGGLVQAGGSLRLSCAASGFIFAHNAMGWYRPAPGTETEFVAAISANTGNTYYADSVKGRFTISRDNAKNTVYLQMNSLKPEDTAVYYCRSFYYWGQGTQVTVSS	high polyreactivity
QGQRVESGGGLVQAGGSLRLSCAASGSTFEDNAMGWSRPAPGKERELVAAITTGGGSTYYADSVKGRFTISRDNAKNTVYLQMNSLKPEDTAVYYCAADWSYYYSRNYESDYWGQGTQVTVSS	low polyreactivity
QHQLGESGGGLVQAGGRLRLSCAASGRIFHVSAMGWYREAPGKERELVAAISSGDRTYYADSGKGRFIISRDNAKNSVYLQLNSLKPEDTAVYYCWRYPAAESNYWGQGTQVTVSS	low polyreactivity
QHQLVESGGGLVQAGGSLRLSCAASGSIFWRYVMGWYRPAPGKERELVAAISSGGGITYYADSVTGRFTISRDTAKNTLYLQMNSLKPEDTAVYYCAAYGSLSPKYGYWGQGTQVNVSS	high polyreactivity
QLHLVESGGGLVQAGGSLRLSCAASGYIFNYNAMGWSRQAPGTQREFVAAISQGGGSTYYADSVKGRFTISRDNSKYTVYLQMNRLKPEDTAVYYCAADYRSGYREMDYWGQGTQVTVSS	low polyreactivity
QLHLVESGGGLVQAGGSLRLSCAGSGFTFGHSAMGWYRQAPGNDRELVASITWSGGSTYYADSVKGRFTISRDNAKNTVYLQMNSRKPEDTAVYYCNAQERRVRDYDYWGQGTQVTVSS	low polyreactivity
QLQHVESGGGLVQAGGSLRLSCAASGRTFWYYAMGWYRQAPGTESELVAAISRGGGSTYYADSVKGSFTISRDTAKNTVYLQMNILKPEDTAVYYCAVASDYRGYYYWGQGTQVTVSS	high polyreactivity
QLQHVESRRGLVQAGGSLRLSCAASGLTFVGYAMGWYRQAPGKERELGAAISGVGTTNYADSVKGRFTISRDNAKNTVYFQMNSLKPEDSAVYYCAKAPYPVPYGLYDYWGQGTQVTVSS	low polyreactivity
QLQIVESGGGLVQAGGSLRLISAASGSTLAYYAMGWYRQEPGKERELVAAINWRTYYADSVKGRFTISRDNAMNTLYLQMNSLKPEDTAVYYCAAGYYLNKFYYWGQGTQVTVSS	high polyreactivity
QLQLDESRGGLVQAGRSLRLSCAASGGNFRYYAMGWYRQAPGKERELDAAISSGGSTNYADSVKVRFTISRDNAKNTVYLQMNSLKREDTAVYYCAADVIYYYAYYTYDYWGQGTQVTVSS	low polyreactivity
QLQLEESCGGLVQAGGSLRLSCAATGFIFGKYAMGWYRQAPGKQREFVAAITRSGGSTYYADSVKGRVTISRDNAKNTVFLQMFCLKPEDTAVYYCNARISERGWRYYYWGHGTQVTVSS	high polyreactivity
QLQLEESGGGLVQAGGSLRLSCAAYGSIYYYNGMGWYRQAPAKERELVAAISSSGGRTYYADSVKGRFTISRDNENNTVYLQMNSLKPEDPAVYYCYDSGFGKTGFGYDYWGQGTQVTVSS	low polyreactivity
QLQLEESGGGLVQAGGSLRLSSAASGRTFYYYAIGWYRQAPGKERELVAAISRGGSTYYADSVKGRFTISRDNAKITVYLQMHSLKPEDTAVYYCAAVLRPDRYDYWGQGTQVTVSS	high polyreactivity
QLQLHESGGVQAGGSLRLSCAAGGYISRSDVMGWYRQAPGKERELVATINNGTITYYADSVKGRFNISRDNAKNTVYLQMNSLKREDTAVHYWAVVQSDCDSLYYWGQGTQVTVSS	low polyreactivity
QLQLQESGGGLVLAGGSLRLSCSASGNISVYGSMCWYRQAPGKEREFVATIDPGTNTNYADSVKDRFTISRDNAKNTVYLQMNSLKPEDTAVSYCAVEAGSDWPYRYRGQGTQVTVSS	low polyreactivity
QLQLQESGGGLVQSGGSLRLSCAASGTISFTRDMGWYRQAPGKEREFVASIDRGASTYYADSVKGRFTISRDNAKNTVYLQMNSLKPEDTAVYYRAFIAPFYSSFAYWGQGTQVTVSS	high polyreactivity
QLQLVESGGALVQAGGSLRLSCAASGFTFSRNVMGWYRQAPGKERELVAAISSGSTYYADSVKGRFTISRDNAKKTVYLQMNSLKPEDTAVYYCAKRGRLRNYDYWGQGTKVTVSS	high polyreactivity
QLQLVESGGGLVQAGGILRLSCAASGLIFAEYAMGWYRQAPAKERELVARITSGGSTDYADSVKGRFTISRDNAKNTVYLQMNSLKPEDTAVYYCAARYYSQDKNASTASDFDYWGQGTQVTVSS	low polyreactivity
QLQLVESGGGLVQAGGSLRLSCAASGFIFHRNAMGWYRQAPGKERELVAAISGSGGSTYYADSVNGRFTISRDNAKNTVYLQMNSLKPEDTAVYYCAKRGRSTYGYDYWGQGTQVNVSS	high polyreactivity

Sequence	polyreactivity (PSR sort gate)
QLQLVESGGGLVQAGGSLRLSCAASGFIFYYNVMGWYRQAPGKERELVAAIRYRGTITYYADSVKGRFTISRDIAKNTVYLQMNSLKPEDTAVYYCARRQRNYYRSSPGGDYWGQGTQVTVSS	low polyreactivity
QLQLVESGGGLVQAGGSLRLSCAASGFISWCNAMGWYRQAPGKERELVAAISWRDARTYYADSVKGRFTLSRDNAKNTVYLQMNSLKPEDTAVYYCNAVTAYVSRYLRGYRWFDYWGQGTQVTVSS	low polyreactivity
QLQLVESGGGLVQAGGSLRLSCAASGFTFRWNGMGWYRQAPGKERELVPSISSTGGSTYYADSVKGRFTISRDNAKNTVYLQMNSLKPEDTAVYYCNAVVTYHYSVTSVGSRFDYWGQGTQVTVSS	high polyreactivity
QLQLVESGGGLVQAGGSLRLSCAASGFTFYYNALGWYRQAPGKDRELVSSITRSGGRTYYAESVKGRFTISRENAKNTVYLQKNSLKPEDTAVYFCARRYPGGYYWGQGTQVTVSS	high polyreactivity
QLQLVESGGGLVQAGGSLRLSCAASGIIFIYNGMGWYRQAPGKERELVATINWSGGNTYYADSVKGRFTISRDNAKNTVYLQMNSLKPEDTAVYYCAVRGSRYWGYDYWGQGTQVTVSS	low polyreactivity
QLQLVESGGGLVQAGGSLRLSCAASGITFPFYDMGWYRQAPGKEREFVAAISWSAGNTYYADSVKGRFTISRDNAKNTVYLQMNSLKPEDTAVYYCAAYGPSYEEDYWGQGTQVTVSS	high polyreactivity
QLQLVESGGGLVQAGGSLRLSCAASGLTIWRYAKGCYRQAPGKEREFVATISQNGGRTYYADSVKGRFTISRDNAKNSVYLQMNSLKPEDTAVYYCAADDWRWGYDYWVQGTQVTVSS	high polyreactivity
QLQLVESGGGLVQAGGSLRLSCAASGNIFNYYAMGWYRQATGKERELVAAIRSGARTSYADSVKGRFTISRDNAKNTVYLQMNSLKPEDTAVYYCAASRFRWVQRDDYWGQGTQVTVSS	high polyreactivity
QLQLVESGGGLVQAGGSLRLSCAASGNNIVFYAMGRYRQAPGKERELVAAMTSGGSTNYADSVKGRFTISRDNAKNTVYLQMNSLKPEATAVYYCAARQWFAHRRWGGSRYDYWGQGTQGTVSS	low polyreactivity
QLQLVESGGGLVQAGGSLRLSCAASGRIRYIAIGWYRQAPWKERELVAAITSSGGSTYYADSVKGRFTISRDNAKYTVDLQMNRLKPEDTAVYYCNAVASLSVDYWGQGTQVTVSS	high polyreactivity
QLQLVESGGGLVQAGGSLRLSCAASGRIVKYDMGWYRQAPGKERELVAAISGSGGTTNYADSVKGRFTISRDNAKNTVYLKLNSLKPEETAVYYCAASRPRPPSSRRMDYWGQGTQVTVSS	high polyreactivity
QLQLVESGGGLVQAGGSLRLSCAASGRTFFGYAMGWYSQAPGKERELVATIDGSDGSTFYADSGKGRFTISRDNAKNTVYLQMNSLKPEDTAVYYCAAENFWQTKEYDYWGQGTQVTVSS	low polyreactivity
QLQLVESGGGLVQAGGSLRLSCAASGRTFRINTMGWYRPAPGKERELVATITGSGGSTYYADSVKGRFTISRDNAKNTVYLQMNSLKPEDTAVYYCAAVGDQNEYDYWGQGTQVTVSS	low polyreactivity
QLQLVESGGGLVQAGGSLRLSCAASGRTFVSIALGWYRQAPGKERELFAGINWTDDSTYYADSVKGRFTISRDNAKHSVYLQMNCLKPEDTAVYYCAADQQDGLWDYQDWYDYWGPGTQVTVSS	low polyreactivity
QLQLVESGGGLVQAGGSLRLSCAASGRTFWYYTMGWYRQAPGKERELVAAISSGGRTNYADSVKGRFTISLDNAKNTVYLQMNSLKPEDTAVYYCATSRYYKYVERDYWGQGTLVTVSS	high polyreactivity
QLQLVESGGGLVQAGGSLRLSCAASGRTFYVNAMGWYRQAHGKERELVARISSSGITYYAVSVKGRFTISRDNAKNTVYLQMNSLKPEDTAVYYCAAGPWFYYWGQGTQVTVSS	low polyreactivity
QLQLVESGGGLVQAGGSLRLSCAASGRTSRRYAMGWYRQAPGKERELVAAIRGSGGSTYYADSVKGRFTISRDNAKNTVYLQMNSLKPEDTAVYYCAADWSFWSLAYPSAKFYAEFDYWGQGTQVTVSS	high polyreactivity
QLQLVESGGGLVQAGGSLRLSCAASGSIFDQNAMGWYRHAPGKERELVAAISKSGGSTYYADSVKGRFTISRDNAKNTVYLQLNSLKPEDTAVYYCAARYHYPGNWYNYWGQGTQVTVSS	low polyreactivity
QLQLVESGGGLVQAGGSLRLSCAASGSIFGGYAMGWYRQAPGKERELVAAITGTDTTNYADSVKGRFTISRDNAKNTVYLQMNSLKPEDTAVFYCNADYQPVAAVYNYDYWGQGTQVTVSS	low polyreactivity
QLQLVESGGGLVQAGGSLRLSCAASGSIFHGNVMGRYRHAPGKEMELVAAISSSGGSTYYADSVKGRFTISRDIAKNTVYLQMNSLKPEDNAVYYCAARNRYWGQGTQVTVSS	high polyreactivity
QLQLVESGGGLVQAGGSLRLSCAASGSIFLIYDMGWYRQAPGKEMELVAAISNSVGSTYADSVKGRFTISRDNAKNTVYLQMNSLKPEDTAVYYCNADSGPIDGRGGYWGQGTQVTVSS	low polyreactivity
